Measurements from patent publication US20240002497A1 (Merck Sharp & Dohme, published 2024).
Each block holds one binder with its values, some of them ahead of it.

Columns and labels:
huNav1.7α + β1-β2-β3 [1] = target: T1, huNav1.7α + β1-β2-β3 (human, UniProt Q15858 1-1988; A5A6L6 19-218; O60939 30-215; Q2KI11 23-215); experiment: FACS, CHO Flp-In, competitor 1 µM IRR00092
T1 construct: also called huNav1.7-beta1-beta2-beta3; huNav1.7-β1-β2-β3

huNav1.5-β1-β2-β3 [2] = target: T2, huNav1.5-β1-β2-β3 (human); experiment: FACS, CHO Flp-In, competitor 1 µM IRR00092
T2 construct: Whole entry; CHO Flp-In or HEK Flp-In cells; also called huNav1.5-beta1-beta2-beta3

rhNav1.7α + β1-β2-β3 [3] = target: T3, rhNav1.7α + β1-β2-β3 (rhesus monkey); experiment: FACS, CHO Flp-In, competitor 1 µM IRR00092
T3 construct: also called rhNav1.7-beta1-beta2-beta3; rhNav1.7-β1-β2-β3

huNav1.5-β1-β2-β3 [4] = target: T2, huNav1.5-β1-β2-β3; experiment: FACS, CHO Flp-In, competitor 1 µM F010300703
rhNav1.7α + β1-β2-β3 [5] = target: T3, rhNav1.7α + β1-β2-β3; experiment: FACS, CHO Flp-In, competitor 1 µM F010300703
huNav1.7α + β1-β2-β3 [6] = target: T1, huNav1.7α + β1-β2-β3; experiment: binding FACS, CHO Flp-In, periplasmic extract
huNav1.5-β1-β2-β3 [7] = target: T2, huNav1.5-β1-β2-β3; experiment: binding FACS, CHO Flp-In, periplasmic extract
huNav1.5-β1-β2-β3 [8] = target: T2, huNav1.5-β1-β2-β3; experiment: binding FACS, HEK Flp-In
huNav157chim14-β1-β2-β3 = target: T4, huNav157chim14-β1-β2-β3 (human); experiment: binding FACS, HEK Flp-In
T4 construct: Whole entry; HEK Flp-In cells; also called huNav157 chimera 14-beta1-beta2-beta3

huNav157chim14 = target: T5, huNav157chim14 (human); experiment: binding FACS, HEK Flp-In
T5 construct: HEK Flp-In cells; also called huNav157 chimera 14

huNav1.8α [9] = target: T6, huNav1.8α (human, UniProt Q9Y5Y9 1-1956); experiment: binding FACS on stable cell lines
T6 construct: also called huNav1.8 (alpha subunit)
T6 sequence (Q9Y5Y9 whole entry): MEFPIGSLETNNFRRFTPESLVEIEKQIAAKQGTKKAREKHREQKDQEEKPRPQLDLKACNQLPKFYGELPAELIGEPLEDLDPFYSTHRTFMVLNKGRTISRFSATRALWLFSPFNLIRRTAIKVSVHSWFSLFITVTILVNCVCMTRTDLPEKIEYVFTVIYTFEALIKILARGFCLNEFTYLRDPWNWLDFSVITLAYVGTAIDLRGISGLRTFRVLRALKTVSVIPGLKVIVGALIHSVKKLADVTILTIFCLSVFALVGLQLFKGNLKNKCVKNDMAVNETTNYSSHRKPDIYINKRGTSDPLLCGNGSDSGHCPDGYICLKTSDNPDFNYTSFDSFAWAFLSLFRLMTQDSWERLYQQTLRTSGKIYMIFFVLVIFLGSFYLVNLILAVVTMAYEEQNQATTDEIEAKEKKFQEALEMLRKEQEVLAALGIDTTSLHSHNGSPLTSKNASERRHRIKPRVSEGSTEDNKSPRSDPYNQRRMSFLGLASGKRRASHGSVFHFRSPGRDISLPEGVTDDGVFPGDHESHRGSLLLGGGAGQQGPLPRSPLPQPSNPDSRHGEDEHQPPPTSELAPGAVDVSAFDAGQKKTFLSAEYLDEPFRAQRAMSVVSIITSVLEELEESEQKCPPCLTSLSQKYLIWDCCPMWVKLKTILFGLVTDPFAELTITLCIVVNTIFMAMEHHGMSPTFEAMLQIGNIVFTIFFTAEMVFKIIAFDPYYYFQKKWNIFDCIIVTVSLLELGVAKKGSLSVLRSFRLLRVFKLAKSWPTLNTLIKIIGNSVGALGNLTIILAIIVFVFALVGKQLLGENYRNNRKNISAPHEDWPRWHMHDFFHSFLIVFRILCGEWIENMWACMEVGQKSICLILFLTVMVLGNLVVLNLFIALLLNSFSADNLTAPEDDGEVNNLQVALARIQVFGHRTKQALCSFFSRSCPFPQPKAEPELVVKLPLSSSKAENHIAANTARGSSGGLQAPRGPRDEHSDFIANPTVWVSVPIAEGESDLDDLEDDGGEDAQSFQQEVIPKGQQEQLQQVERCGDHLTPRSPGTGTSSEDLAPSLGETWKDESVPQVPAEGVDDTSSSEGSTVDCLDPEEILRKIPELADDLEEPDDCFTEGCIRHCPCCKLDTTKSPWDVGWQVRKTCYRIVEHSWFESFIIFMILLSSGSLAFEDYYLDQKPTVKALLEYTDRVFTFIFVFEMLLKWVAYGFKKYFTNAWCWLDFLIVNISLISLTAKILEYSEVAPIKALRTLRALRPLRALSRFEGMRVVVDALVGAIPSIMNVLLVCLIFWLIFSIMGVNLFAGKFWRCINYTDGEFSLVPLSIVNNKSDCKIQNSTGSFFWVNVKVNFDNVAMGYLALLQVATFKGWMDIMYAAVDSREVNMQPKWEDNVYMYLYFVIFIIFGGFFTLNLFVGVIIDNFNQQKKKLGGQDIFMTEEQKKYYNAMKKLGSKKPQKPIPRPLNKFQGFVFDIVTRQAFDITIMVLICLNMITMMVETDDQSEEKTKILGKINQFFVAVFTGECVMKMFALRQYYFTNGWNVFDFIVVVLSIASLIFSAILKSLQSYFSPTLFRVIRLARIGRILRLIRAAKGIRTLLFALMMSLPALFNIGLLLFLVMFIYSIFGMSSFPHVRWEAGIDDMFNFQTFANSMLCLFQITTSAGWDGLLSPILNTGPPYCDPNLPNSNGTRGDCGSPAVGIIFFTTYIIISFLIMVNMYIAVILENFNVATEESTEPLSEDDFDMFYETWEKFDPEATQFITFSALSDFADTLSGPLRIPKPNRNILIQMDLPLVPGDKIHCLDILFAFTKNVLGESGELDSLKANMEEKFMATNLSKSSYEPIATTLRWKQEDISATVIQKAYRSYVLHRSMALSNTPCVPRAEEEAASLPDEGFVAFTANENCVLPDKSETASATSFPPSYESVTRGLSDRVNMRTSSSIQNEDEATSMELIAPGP

huNav1.5α+β1-β2-β3 = target: T7, huNav1.5α+β1-β2-β3 (human, UniProt Q14524 1-2016; A5A6L6 19-218; O60939 30-215; Q2KI11 23-215); experiment: binding FACS, HEK FlpIn cells
T7 construct: in the cell P2A cleaves it into α, β1, β2, β3; also called huNav1.5-beta1-beta2-beta3
Method: (§1) Binding of the ISVDs to cell-expressed Nav1.7α was detected via murine anti-Flag (Sigma, catalog #F1804). Briefly, cells were resuspended in FACS buffer (PBS, 10% FBS, NaN₃) and transferred to a 96-well V-bottom plate at 1×10^5 cells/well. Purified FLAG3-tagged ISVD was diluted in FACS buffer and added to the cells for 30 minutes at 4° C. […] Prior to the read-out, the samples were resuspended in 1 μg/mL propidium iodide (Sigma, catalog #P4170) to exclude dead cells. Between each step, the cells were centrifuged for 5 minutes at 200 grams and washed with 100 μL/well FACS buffer.
(§2) Crude periplasmic extracts containing ISVDs from phage display selections (as described above) were screened in FACS for binding to huNav1.7α but not to huNav1.5a. […] As used in Table 8, the drawings, and throughout the description, Navβ1, Navβ2, and Navβ3 are human homologs unless specifically identified otherwise.

rhNav1.7α = rhNav1.7α (rhesus monkey, UniProt Q15858 1-1988 (human entry)); experiment: cell-based or functional assay
[10] = target: T8, huNav157chimera14+β1-β2-β3 (human, UniProt Q07699 19-218; O60939 30-215; Q9NY72 23-215); experiment: binding FACS with purified FLAG3-HIS6 tagged ISVDs
T8 construct: HEK FlpIn line; also called huNav157 chimera 14-beta1-beta2-beta3; Nav157ch14-β1-β2-β3
Method: as §1, §2

huNav1.3α = target: T9, huNav1.3α (human, UniProt Q9NY46 1-2000); experiment: binding FACS on stable huNav1.x paralog HEK293T cell lines
T9 construct: also called huNav1.3 (alpha subunit)

huNav1.8α [11] = target: T6, huNav1.8α; experiment: as above
huNav1.6α = target: T10, huNav1.6α (human, UniProt Q9UQD0 1-1980); experiment: as above
T10 construct: also called huNav1.6 (alpha subunit)

huNav1.4α = target: T11, huNav1.4α (human, UniProt P35499 1-1836); experiment: as above
T11 construct: also called huNav1.4 (alpha subunit)

huNav1.2α = target: T12, huNav1.2α (human, UniProt Q99250 1-2005); experiment: as above
T12 construct: also called huNav1.2 (alpha subunit)
T12 sequence (Q99250 whole entry): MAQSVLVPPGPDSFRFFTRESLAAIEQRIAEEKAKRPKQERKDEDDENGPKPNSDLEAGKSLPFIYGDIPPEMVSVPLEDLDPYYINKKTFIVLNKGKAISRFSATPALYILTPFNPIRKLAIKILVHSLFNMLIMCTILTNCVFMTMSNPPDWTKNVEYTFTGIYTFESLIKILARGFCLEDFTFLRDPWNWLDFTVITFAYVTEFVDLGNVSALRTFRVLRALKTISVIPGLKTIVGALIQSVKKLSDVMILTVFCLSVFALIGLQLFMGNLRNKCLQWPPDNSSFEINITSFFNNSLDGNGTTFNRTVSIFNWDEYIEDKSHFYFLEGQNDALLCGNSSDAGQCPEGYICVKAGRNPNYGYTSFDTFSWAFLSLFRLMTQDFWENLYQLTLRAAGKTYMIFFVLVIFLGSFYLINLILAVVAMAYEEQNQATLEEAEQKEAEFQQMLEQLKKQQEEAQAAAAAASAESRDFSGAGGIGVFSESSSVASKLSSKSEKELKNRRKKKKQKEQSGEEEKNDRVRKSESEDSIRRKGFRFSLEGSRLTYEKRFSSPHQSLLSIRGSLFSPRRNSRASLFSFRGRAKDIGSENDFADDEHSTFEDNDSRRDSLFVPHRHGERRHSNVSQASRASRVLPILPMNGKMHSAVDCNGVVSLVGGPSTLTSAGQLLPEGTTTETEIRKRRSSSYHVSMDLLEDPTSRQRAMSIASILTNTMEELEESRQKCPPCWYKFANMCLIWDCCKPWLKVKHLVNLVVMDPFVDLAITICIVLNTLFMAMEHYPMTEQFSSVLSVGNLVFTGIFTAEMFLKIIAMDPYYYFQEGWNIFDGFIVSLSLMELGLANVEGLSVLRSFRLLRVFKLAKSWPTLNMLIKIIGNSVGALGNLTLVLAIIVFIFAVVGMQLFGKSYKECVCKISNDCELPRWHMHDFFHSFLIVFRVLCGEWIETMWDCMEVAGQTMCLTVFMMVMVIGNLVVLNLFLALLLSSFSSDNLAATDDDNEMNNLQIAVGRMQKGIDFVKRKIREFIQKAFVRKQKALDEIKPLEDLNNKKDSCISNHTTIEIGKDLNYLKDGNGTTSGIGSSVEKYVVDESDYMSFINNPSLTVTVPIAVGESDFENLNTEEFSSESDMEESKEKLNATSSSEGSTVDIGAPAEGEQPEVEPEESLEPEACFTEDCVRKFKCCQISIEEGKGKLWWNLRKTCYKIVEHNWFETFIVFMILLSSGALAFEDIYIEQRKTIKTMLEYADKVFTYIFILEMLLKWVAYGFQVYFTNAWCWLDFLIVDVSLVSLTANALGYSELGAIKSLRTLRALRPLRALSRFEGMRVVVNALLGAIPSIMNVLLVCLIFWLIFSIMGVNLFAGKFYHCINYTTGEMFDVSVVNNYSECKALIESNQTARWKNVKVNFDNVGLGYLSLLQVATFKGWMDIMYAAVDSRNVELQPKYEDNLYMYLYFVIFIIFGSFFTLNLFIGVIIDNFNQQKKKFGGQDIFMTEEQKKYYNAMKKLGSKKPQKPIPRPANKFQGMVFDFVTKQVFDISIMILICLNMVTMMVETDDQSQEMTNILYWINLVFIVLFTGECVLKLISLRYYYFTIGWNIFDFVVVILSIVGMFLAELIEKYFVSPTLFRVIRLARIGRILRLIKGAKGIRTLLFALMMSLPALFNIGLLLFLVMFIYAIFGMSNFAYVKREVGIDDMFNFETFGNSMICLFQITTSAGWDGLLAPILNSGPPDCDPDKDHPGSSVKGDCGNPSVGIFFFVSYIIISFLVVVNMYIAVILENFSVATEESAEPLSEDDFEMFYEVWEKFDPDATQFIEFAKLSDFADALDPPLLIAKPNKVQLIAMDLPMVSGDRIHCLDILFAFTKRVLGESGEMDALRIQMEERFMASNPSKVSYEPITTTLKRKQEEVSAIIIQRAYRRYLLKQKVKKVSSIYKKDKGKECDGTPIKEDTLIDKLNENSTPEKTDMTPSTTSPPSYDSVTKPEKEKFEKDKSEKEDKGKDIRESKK

huNav1.1α = huNav1.1α (human, UniProt P35498 1-2009); experiment: as above
huNav1.5α = target: T13, huNav1.5α (human, UniProt Q14524 1-2016); experiment: as above
T13 construct: also called huNav1.5 (alpha subunit)

huNav1.7α+β1 = target: T14, huNav1.7α+β1 (human, UniProt Q15858 1-1988; Q07699 19-218); experiment: binding FACS, HEK293 cells
T14 construct: also called huNav1.7-beta1; HEKa/β1
Method: as §1, §2

huNav1.7α+β1-β2-β3 = target: T15, huNav1.7α+β1-β2-β3 (human, UniProt Q15858 1-1988; Q07699 19-218; O60939 30-215; Q9NY72 23-215); experiment: binding FACS, CHO FlpIn cells
T15 construct: 5N11S variant; also called huNav1.7-beta1-beta2-beta3; huNav1.7α+Navβ1-Navβ2-Navβ3
Method: as §1, §2

rhNav1.7α+β1-β2-β3 = target: T16, rhNav1.7α+β1-β2-β3 (rhesus monkey α subunit with human β …); experiment: binding FACS, CHO FlpIn cells
T16 construct: P2A cleaves it into α, β1, β2, β3; also called rhNav1.7-beta1-beta2-beta3
Method: as §1, §2

MFI (huNav1.7α + β1-β2-β3 [1]): 33700 MFI
MFI (rhNav1.7α + β1-β2-β3 [3]): 96900 MFI
MFI (rhNav1.7α + β1-β2-β3 [5]): 21500 MFI
MFI (huNav1.7α + β1-β2-β3 [6]): 22400 MFI
MFI (huNav157chim14-β1-β2-β3): 87200 MFI
MFI (huNav157chim14): 47300 MFI
B1: F0103PMP500E03 (bispecific antibody)
chain: EVQLVESGGGLVQPGGSLRLSCAASGSIFNINSMAWYRRAPGKQRELVASSTNGGSTNYADSVKGRFTISRDNAKRVYLQMNSLTPEDTAVYYCRALLQPSIYDISRTYWGQGTLVTVSSGGGGSGGGGSGGGGSGGGGSGGGGSGGGGSGGGGSGGGGSGGGGSGGGGSEVQLVESGGGLVQAGGSLRLSCAASGRTFSRYQMGWFRQAPGKEREFVAYISWSGSTRYVDSVKGRFTISRDNAKNTVYLQMNSLKPEDTAVYHCAAGTAGIISSRPETYDSWGQGTQVTVSSAAADYKDHDGDYKDHDIDYKDDDDKGAAHHHHHHKAA
notes: crude periplasmic extract; also called F103275B05(N93R)-50GS-F0103500E03 bivalent ISVD
MFI (huNav1.5-β1-β2-β3 [2]): 975 MFI
MFI (huNav1.5-β1-β2-β3 [4]): 852 MFI
MFI (huNav1.5-β1-β2-β3 [7]): 521 MFI
MFI (huNav1.5-β1-β2-β3 [8]): 1110 MFI

binding result (huNav1.8α [9]): no binding
2-pulse IC50 [M], P1 (rhNav1.7α): 7e-06 M
2-pulse IC50 [M], P2 (rhNav1.7α): 3e-06 M
binding result [10]: binds
B2: F0103387G04 (parental)-FLAG-HIS6 (VHH)
VHH: EVQLVESGGGLAQPGGSLRLSCAASGPVFNINKMAWYRRAPGKQRELVASVTPTGSISYTDSVKGRFTISRDGSKRWSLQMNSLTPEDTAVYYCNALLQPDSYSNTRTYWGQGTLVTVSS
notes: also called F01033387G04
binding result (huNav1.5α+β1-β2-β3): no binding

binding result (huNav1.3α): no binding
binding result (huNav1.8α [11]): no binding
binding result (huNav1.6α): no binding
binding result (huNav1.4α): no binding
binding result (huNav1.2α): no binding
binding result (huNav1.1α): no binding
EC50 (huNav1.7α+β1): 4.1 nM
EC50 (huNav1.7α+β1-β2-β3): 4.1 nM
EC50 (rhNav1.7α+β1-β2-β3): 27 nM
binding result [10]: binds
B3: F0103464B09 (parental)-FLAG-HIS6 (VHH)
VHH: EVQLVESGGGLVQPGGSLRLSCATTSRAFIRDVFTGWYRRVPGKERELVARIYNGGNTNYADFAKGRFSISRDNAKKMVTLRMSNLKPEDTGVYYCLFSGTINTGREYRSGDYWGQGTLVTVSS
notes: also called F103464B09
binding result (huNav1.5α): no binding
binding result (huNav1.5α+β1-β2-β3): no binding

MFI (huNav1.7α + β1-β2-β3 [1]): 93300 MFI
MFI (rhNav1.7α + β1-β2-β3 [3]): 90400 MFI
MFI (rhNav1.7α + β1-β2-β3 [5]): 6280 MFI
MFI (huNav1.7α + β1-β2-β3 [6]): 35600 MFI
MFI (huNav157chim14-β1-β2-β3): 128000 MFI
MFI (huNav157chim14): 45100 MFI
B4: F0103PMP495F09 (bispecific antibody)
chain: EVQLVESGGGLVQPGGSLRLSCAASGSIFNINSMAWYRRAPGKQRELVASSTNGGSTNYADSVKGRFTISRDNAKRVYLQMNSLTPEDTAVYYCRALLQPSIYDISRTYWGQGTLVTVSSGGGGSGGGGSGGGGSGGGGSGGGGSGGGGSGGGGSGGGGSGGGGSGGGGSEVQLVESGGGLVQAGSSLSLSCAASGRALSTYAMGWFRQAPGKEREFVARISRSGITTYYTDSVKGRFTISRDRAKDTVYLQMNSLKPEDTAIYLCAADASTNPAGYYLRNRYDYWGQGTLVTVSSAAADYKDHDGDYKDHDIDYKDDDDKGAAHHHHHHKAAGGGGG
notes: crude periplasmic extract; also called F103275B05(N93R)-50GS-F0103495F09 bivalent ISVD
MFI (huNav1.5-β1-β2-β3 [2]): 930 MFI
MFI (huNav1.5-β1-β2-β3 [4]): 645 MFI
MFI (huNav1.5-β1-β2-β3 [7]): 483 MFI
MFI (huNav1.5-β1-β2-β3 [8]): 976 MFI

MFI (huNav1.7α + β1-β2-β3 [1]): 95400 MFI
MFI (rhNav1.7α + β1-β2-β3 [3]): 108000 MFI
MFI (rhNav1.7α + β1-β2-β3 [5]): 22500 MFI
MFI (huNav1.7α + β1-β2-β3 [6]): 106000 MFI
MFI (huNav157chim14-β1-β2-β3): 136000 MFI
MFI (huNav157chim14): 78400 MFI
B5: F0103PMP505D08 (bispecific antibody)
chain: EVQLVESGGGLVQPGGSLRLSCAASGSIFNINSMAWYRRAPGKQRELVASSTNGGSTNYADSVKGRFTISRDNAKRVYLQMNSLTPEDTAVYYCRALLQPSIYDISRTYWGQGTLVTVSSGGGGSGGGGSGGGGSGGGGSGGGGSGGGGSGGGGSGGGGSGGGGSGGGGSEVQLVESGGGLVQAGGSLRLSCVTSGRTSDLSTMNWFRQAPGKEREFVARITRRGSTYYAESVKERFIISRDNAKNTVYLQMNSLKPEDTANYYCTAASEMGYHYRGQGTQVTVSSAAADYKDHDGDYKDHDIDYKDDDDKGAAHHHHHHKAAGGGGG
notes: crude periplasmic extract; also called F103275B05(N93R)-50GS-F0103505D08 bivalent ISVD
MFI (huNav1.5-β1-β2-β3 [2]): 964 MFI
MFI (huNav1.5-β1-β2-β3 [4]): 845 MFI
MFI (huNav1.5-β1-β2-β3 [7]): 891 MFI
MFI (huNav1.5-β1-β2-β3 [8]): 1200 MFI
